Assay results taken from patent publication US11673916B2, “Neuroprotective peptides and methods of their use” (University of Pittsburgh—Of the Commonwealth System of …, priority 2020, dated 2023).

Target: T1, Kv2.1 surface clusters (Rattus norvegicus, UniProt P15387)
T1 construct: expressed in transfected cells; host or cells: primary rat cortical neurons (E16-17 Sprague-Dawley), Lipofectamine 2000
T1 sequence (P15387 1-857): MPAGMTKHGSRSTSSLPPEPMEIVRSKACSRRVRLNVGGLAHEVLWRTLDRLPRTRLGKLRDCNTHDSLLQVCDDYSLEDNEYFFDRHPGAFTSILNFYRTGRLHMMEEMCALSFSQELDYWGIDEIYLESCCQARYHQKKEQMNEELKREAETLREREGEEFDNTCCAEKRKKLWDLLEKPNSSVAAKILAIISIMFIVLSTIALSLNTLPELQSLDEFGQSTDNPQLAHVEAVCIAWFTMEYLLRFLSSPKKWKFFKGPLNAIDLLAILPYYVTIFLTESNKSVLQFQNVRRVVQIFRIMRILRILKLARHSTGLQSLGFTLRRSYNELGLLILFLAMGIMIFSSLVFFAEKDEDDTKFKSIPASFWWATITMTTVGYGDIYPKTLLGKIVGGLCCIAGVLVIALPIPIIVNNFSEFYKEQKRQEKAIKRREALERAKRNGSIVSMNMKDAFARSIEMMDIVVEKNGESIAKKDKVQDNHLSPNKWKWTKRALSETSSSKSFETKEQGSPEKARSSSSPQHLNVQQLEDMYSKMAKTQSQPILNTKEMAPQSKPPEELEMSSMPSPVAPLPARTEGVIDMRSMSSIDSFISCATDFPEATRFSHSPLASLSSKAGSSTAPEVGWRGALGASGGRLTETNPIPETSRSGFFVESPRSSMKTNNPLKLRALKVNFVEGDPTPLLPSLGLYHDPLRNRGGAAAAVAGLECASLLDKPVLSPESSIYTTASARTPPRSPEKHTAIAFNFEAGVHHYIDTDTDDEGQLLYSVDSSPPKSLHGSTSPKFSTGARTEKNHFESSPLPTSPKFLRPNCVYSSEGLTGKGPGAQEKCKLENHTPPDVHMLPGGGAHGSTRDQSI
Assay: Kv2.1 surface cluster density in live Kv2.1-GFP-transfected cortical neurons treated with TAT-linked peptides
Format: cell-based
Method: In vitro experiments utilized primary cortical neuronal cultures prepared from embryonic day 16-17 Sprague-Dawley rats of either sex in a protocol described previously (McCord et al., J Physiol (Lond). 592: 3511-3521, 2014). Timed-pregnant rats (Charles River Laboratories, Wilmington, Mass.) were sacrificed by CO2 inhalation. Embryonic cortices were dissociated with trypsin (0.6 mg/mL) and cells plated in sterile 6-well plates on poly-L-ornithine-coated glass coverslips at a density of 670,000 cells per well. Cytosine arabinoside (1-2 μM) was utilized to inhibit non-neuronal proliferation on day 14 in vitro (DIV); cultures were utilized at 21-25 DIV.
; Invitrogen, Carlsbad, Calif.). […]; Thermo Fisher Scientific, Waltham, Mass.). […]. Cultures were utilized 18-24 hours following transfection. cDNA amounts for each transfection experiment are described below for each figure. FIG. 1: 0.375 μg/well Kv2.1-GFP plasmid, 0.495 μg/well pcDNA3 vector plasmid, and 0.63 μg/well of either DP-1 or Sc-1, or Kv2.2 CT-expressing plasmid. FIGS. 2, 8, 9, 10, 12: 0.375 μg/well Kv2.1-GFP plasmid, 0.15 μg/well tdTomato plasmid (from Gerhart Ryffel; Addgene plasmid #30530), and 0.975 μg/well pcDNA3 vector plasmid.
To analyze Kv2.1 distribution in live primary cortical neurons, cells were transfected with both a tdTomato construct and a GFP-tagged Kv2.1 construct (O'Connell, et al., J Neurosci. 26: 9609-9618, 2006) and imaged on a Nikon A1+ confocal microscope (Nikon, Tokyo, Japan). Cells were chosen at random by looking only at the tdTomato signal (561 nm), in order to avoid bias. At least three separate culture dates were used per experiment and three coverslips were transfected per condition each time. For these experiments, “n” refers to the total number of cells imaged. Five to 15 optical sections (0.5 μm) capturing the cell surface were obtained of single cells at 60× magnification (Schulien et al., J Physiol (Lond). 594: 2647-2659, 2016), creating a maximum-intensity projection (MAX-IP) of Kv2.1-GFP distribution. To analyze Kv2.1 distribution in the cerebral cortex of fixed brain slices, 51-54 image fields were obtained at 60× magnification across 18 sections from three fixed mouse brains per treatment (total of 6 animals). Image fields were captured by first focusing on an area of superficial cortex closest to the cover glass. Next, 24 optical sections (0.5 μm) were obtained moving deeper into the tissue in order to produce a 12 μm maximum-intensity projection for analysis of Kv2.1 distribution. Laser power, HV (gain), offset, pinhole size, and all camera parameters were kept identical between all samples in a given experiment. Nikon Instruments Software Advanced Research (NIS-Elements AR) was utilized to analyze GFP-tagged Kv2.1 channel cluster distribution. For live images of transfected neurons, object count parameters were customized to define a Kv2.1 cluster as an area of high intensity GFP fluorescence (compared to background), measuring 0.05 μm^2 or larger (Schulien et al., J Physiol (Lond). 594: 2647-2659, 2016). Kv2.1 cluster density was calculated by normalizing the number of Kv2.1 clusters counted to the somatic area of each neuron (#Kv2.1 clusters/μm^2). Due to high variability in GFP-Kv2.1 expression between individual neurons, intensity thresholding required cell-specific local-background subtraction. In each neuron analyzed, two populations on Kv2.1-GFP expression were first noted—(a) highly localized signals of clustered Kv2.1 channels, and (b) diffuse background staining that represents freely-dispersed, conducting Kv2.1 channels on the plasma membrane. A small region of interest (ROI) within region (b) was set as the background subtraction standard of the image, creating an optimal signal-to-noise ratio for clustered Kv2.1 channels. […]

[1] = 3 μM peptide, two-hour treatment, mean±SEM (FIG. 2B)
[2] = 10 μM peptide, two-hour treatment, mean±SEM (FIG. 2B)

In the case of “YGRKKRRQRRRDFSSIST [TAT-Sc-2, TAT-linked scramble control peptide]”, the “mean Kv2.1 surface cluster density” value [1] is reported as 0.15±0.01 #Kv2.1 clusters/μm^2 of neuronal soma and the “mean Kv2.1 surface cluster density” value [2] is reported as 0.16±0.02 #Kv2.1 clusters/μm^2 of neuronal soma.

For “YGRKKRRQRRRSIDSFTS [TAT-DP-2, TAT-linked declustering peptide 2]”, the “mean Kv2.1 surface cluster density” value [1] was 0.07±0.02 #Kv2.1 clusters/μm^2 of neuronal soma, the “mean Kv2.1 surface cluster density” value [2] was 0.08±0.01 #Kv2.1 clusters/μm^2 of neuronal soma and the “mean Kv2.1 surface cluster density” value (10 μM, 2 h after initiation of treatment, mean+/-SEM (FIG. 9)) was 0.06±0.01 #Kv2.1 clusters/μm^2 of neuronal soma. For the same sequence, the “mean Kv2.1 surface cluster density” value (10 μM, 24 h after initiation of treatment, peptide removed after two hours, mean+/-SEM (FIG. 9)) was 0.09±0.01 #Kv2.1 clusters/μm^2 of neuronal soma, the “time-course of Kv2.1 surface cluster dispersal” value (10 μM, before, 60 and 120 minutes post-treatment (FIG. 8)) was “time-dependent” and the “concentrations at which effective as in vitro declustering tool” value (hypothesized from the 3 μM and 10 μM results) was 3 to 10 µM.
